Experimental data reported in patent publication US20180362657A1 (University of California, published 2018).

Target: T1, receptor tyrosine kinase-like orphan receptor 1 (ROR1) expressed on EW36 cells (human, UniProt Q01973 30-937)
T1 construct: whole, on cells; Endogenous ROR1 on viable EW36 human B-cell lymphoma cells; also called RORI
Assay: flow cytometry on EW36 cells, culture supernatant, Alexa-488 goat anti-human IgG
Method: Dual parameter flow cytometry was done in a FACSCalibur instrument (BD Biosciences; Immunocytometry Systems) using an anti-human 1gG that reacted with cell bound scFV of the invention (as shown in SEQ.ID.No: 3), but not the cells used in these experiments.
Propidium iodide was added to stain dead cells, which could then be excluded from the analysis. Following incubation with the culture supernatants, the cells were washed prior to analysis using a FACSCalibu™ (Becton Dickinson, Mountain View, Calif.). The data analyzed with FlowJo™ software (Tree Star, San Carlos, Calif.). A total of 20,000-gated events were collected for each sample in a list mode file, and data analysis was done using CellQuest™ software (BD Biosciences). The relative log florescence of the cells is depicted on the x-axis. Cells staining with the Alexa-488 conjugated goat antibody are shifted to the right. A histogram of control unstained cells or cells stained with the Alexa-488 conjugated goat antibody in the absence of the scFV are provided for comparison.

T1 sequence (Q01973 30-937): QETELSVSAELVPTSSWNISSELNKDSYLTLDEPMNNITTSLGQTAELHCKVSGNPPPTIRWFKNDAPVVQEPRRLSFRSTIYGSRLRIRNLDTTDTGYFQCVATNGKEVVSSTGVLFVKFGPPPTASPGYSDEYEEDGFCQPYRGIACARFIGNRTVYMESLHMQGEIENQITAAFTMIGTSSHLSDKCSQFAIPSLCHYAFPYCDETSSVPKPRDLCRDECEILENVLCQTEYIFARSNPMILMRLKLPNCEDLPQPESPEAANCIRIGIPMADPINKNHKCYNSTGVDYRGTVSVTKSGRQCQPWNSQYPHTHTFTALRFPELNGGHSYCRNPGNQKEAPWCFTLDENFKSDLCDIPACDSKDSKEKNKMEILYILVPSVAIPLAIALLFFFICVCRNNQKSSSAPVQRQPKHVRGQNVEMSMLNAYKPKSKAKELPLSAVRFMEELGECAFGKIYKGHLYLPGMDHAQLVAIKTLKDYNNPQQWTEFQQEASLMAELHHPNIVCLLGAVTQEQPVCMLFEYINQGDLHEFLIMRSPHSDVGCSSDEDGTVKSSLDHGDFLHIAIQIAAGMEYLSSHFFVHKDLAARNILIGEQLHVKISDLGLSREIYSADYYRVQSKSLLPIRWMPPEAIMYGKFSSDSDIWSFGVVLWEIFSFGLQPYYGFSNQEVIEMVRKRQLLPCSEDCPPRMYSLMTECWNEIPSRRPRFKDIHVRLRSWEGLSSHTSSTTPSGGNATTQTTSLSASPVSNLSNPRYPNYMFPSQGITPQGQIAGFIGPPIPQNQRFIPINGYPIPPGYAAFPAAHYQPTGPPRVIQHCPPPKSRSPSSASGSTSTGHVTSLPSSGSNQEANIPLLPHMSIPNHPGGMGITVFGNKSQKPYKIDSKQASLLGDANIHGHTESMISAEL

binding result: binds
B1: pCDNA 3.1 CH2 CH3 stable scFV (anti-ROR1 mAb scFv fused to CH2 CH3) (Fc fusion)
scFv: DIKMTQSPSSMYASLGERVTITCKASPDINSYLSWFQQKPGKSPKTLIYRANRLVDGVPSRFSGGGSGQDYSLTINSLEYEDMGIYYCLQYDEFPYTFGGGTKLEMKGSTSGSGKPGSGEGSTKGEVKLVESGGGLVKPGGSLKLSCAASGFTFSSYAMSWVRQIPEKRLEWVASISRGGTTYYPDSVKGRFTISRDNVRNILYLQMSSLRSEDTAMYYCGRYDYDGYYAMDYWGQGTSVTVSS
notes: Tested as culture supernatants of stably transfected cell clones; All clones carry the same construct, so they are written as one molecule; also called scFV of the invention; not shown: CH2 CH3 domains (detected with anti-human IgG)
